In patent US20200384079A1, “Compositions of Fibroblast Growth Factor LIgands and Methods of Treating Patients Undergoing Ischemia-Reperfusion Therapy” (University of Cincinnati, priority 2017, published 2020):
Several values for one entry are separate records, joined by “and”; a condition that tells them apart may be missing. Equal entries are not always repeated. Entries after “also recorded” stand apart in the source; their conditions may differ.

T1: FGFR3c ectodomain (Homo sapiens, UniProt P22607)
T1 sequence (P22607 23-375 limits assumed): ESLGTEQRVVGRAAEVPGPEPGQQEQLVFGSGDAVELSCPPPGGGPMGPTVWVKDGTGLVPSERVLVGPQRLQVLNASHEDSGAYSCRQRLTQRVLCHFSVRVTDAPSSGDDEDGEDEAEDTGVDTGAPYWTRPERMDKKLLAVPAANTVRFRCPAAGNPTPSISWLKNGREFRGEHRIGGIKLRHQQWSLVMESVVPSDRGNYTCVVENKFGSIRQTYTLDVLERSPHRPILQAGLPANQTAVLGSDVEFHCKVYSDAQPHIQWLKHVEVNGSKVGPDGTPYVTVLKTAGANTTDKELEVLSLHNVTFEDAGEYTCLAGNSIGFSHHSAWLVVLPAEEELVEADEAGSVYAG


What was measured:
FGFR3c ectodomain = molecular target: T1, FGFR3c ectodomain; test: ITC of FGF binding to FGFR3c ectodomain; settings: for Kd: read-out: affinity for FGFR3c ectodomain
[1] = tested on: in vivo rat model of myocardial infarction; test: In vivo rat ischemia-reperfusion model, infarct size (TTC); parameters: species or system Sprague Dawley rats; settings: for effect on infarct size / cardioprotection (in words): FGF given at reperfusion with heparin co-therapy; for effect on infarct size (in words): given at reperfusion, no heparin co-therapy; for reduction in infarct size compared to saline/vehicle control: given i.v. at reperfusion alone (FGF 10 μg/kg; heparin 12 U/kg/hr)
Description: CVR-2016-799R1 signaling and the other two sets were to evaluate the pharmacokinetic properties of native FGF1 and modified FGF1 (FGF1^ΔHBS). The first set of experiments was for the ischemia/reperfusion study in which animals were divided into six groups as follows: (1) saline group: saline treatment given intravenously for 10 minutes immediately upon reperfusion, (2) heparin group: heparin, 60 U/kg intravenous (i.v.) bolus, given immediately at reperfusion+12 U/kg/hr i.v. infusion for 120 minutes of reperfusion, (3) FGF1 group: FGF1, 10 μg/kg i.v. infusion, given for 10 minutes immediately at reperfusion, (4) FGF1+heparin: heparin, 60 U/kg bolus, given immediately upon reperfusion followed by FGF1, 10 μg/kg i.v. infusion, given for 10 minutes and 12 U/kg/hr i.v. infusion given for 110 minutes of reperfusion, (5) modified FGF1 (FGF1^ΔHBS) group: FGF1^ΔHBS, 10 μg/kg i.v. infusion, given for 10 minutes, or (6) FGF1^ΔHBS+heparin: heparin, 60 U/kg bolus, given immediately at reperfusion followed by FGF1^ΔHBS, 10 μg/kg i.v. infusion, given for 10 minutes and 12 U/kg/hr i.v. infusion for 110 minutes of reperfusion. All rats were subjected to 30 minutes of regional ischemia and 120 minutes of reperfusion. Drugs were administered at the onset of reperfusion via the jugular vein (FIG. 2A). […] A total of ninety-six rats was completed for the I/R study. Sample size for each group ranged from 9-16 depending on the power analysis. A total of thirty-five rats were excluded from the study based on the lack of cyanosis of the heart or typical elevation of the ST segment in the electrocardiogram during ischemia, and death from malignant arrhythmia. For the biodistribution or FGF1 signaling study, rats were randomly divided into six groups as described above (FIG. 2B). Following drug treatment (immediately following 15 minutes of treatment or 105 minutes post-treatment at the point which mimics the length of time of reperfusion), solid organs and blood (see sections “Tissue collection for exogenous FGF1 biodistribution” and “Cardiac preparation to detect the activation of FGF1 downstream molecules”) were collected. A total of 33 rats were used for biodistribution and FGF1 signaling studies, and 3 rats were excluded due to anesthetic overdose. Also, a total of 8 plasma samples were excluded because of hemolysis. For elimination half-life of native FGF1 and FGF1^ΔHBS, 12 rats were randomly divided into two groups and treated intraperitoneally with either FGF1 form as described in the section “Pharmacokinetic evaluation of exogenous FGF1 or FGF1^ΔHBS ”.
The in vivo I/R model was established by ligating and loosening the left anterior CVR-2016-799R1 descending artery (LAD) previously described by our laboratory. In brief, rats were anesthetized with thiobutabarbital sodium salt hydrate, Inactin® hydrate (100 mg/kg, i.p., Sigma-Aldrich), and intubated and artificially ventilated via a rodent respirator (respiratory rate: 75 strokes/minute; tidal volume: 3 mL; Model 683, Harvard, USA). The heart was exposed through a left thoracotomy and pericardiotomy, and a 6-0 silk suture was placed around the left anterior descending (LAD) coronary artery. After equilibration for 15 minutes, hearts were subjected to 30 minutes of ischemia by ligating the LAD via a snare occluder and reperfusion occurred for 120 minute via loosening the snare occluder. The appearance of cyanosis of the heart and significant ST-segment elevation in the electrocardiogram were used to verify successful ligation.
At the end of the ischemia-reperfusion injury study, the LAD was re-occluded with the suture used previously for the establishment of ischemia. 5% Evans blue dye solution was given via the jugular vein to define the area-at-risk (AAR). Then, the heart was arrested in diastole with 1 mL of 15% potassium chloride, and the animal was euthanized with an anesthetic overdose followed by a bilateral pneumothorax for removal of the heart. […]

FGFR1 = FGFR1 activation (phosphorylation) in left ventricle, immunoblot; parameters: species or system rat; settings: in vivo, after 15 minutes of treatment
Description: One-half of each snap-frozen heart was powdered and homogenized in protein extraction buffer as previously described by our laboratory. For FGFR1, 150 μg of total protein were loaded onto a 8% SDS-PAGE gel, for ERK1/2 activation, 20 μg of whole cell protein homogenate was loaded onto a 15% SDS-PAGE gel, and for PKCα and PKCδ, […] of whole cell protein homogenate was loaded onto a 10% SDS-PAGE gel and then transferred to nitrocellulose membrane. 0.1% Ponceau S in 5% acetic acid was used to examine the transfer efficiency and loading equality as described previously 43. Membranes were blocked with 5% dry milk and then incubated with primary antibody against phospho-FGFR1 (Y-654, 1:500, Cell Signaling), phospho-ERK1/2 (1:1000, Cell Signaling) or phospho-PKCα (1:500, Santa Cruz) or phospho-PKCδ (1:500, Santa Cruz) followed by incubation with HRP-conjugated secondary goat anti-rabbit antibody (1:3000, Santa Cruz Biotechnology). […]
Construction of his-tagged native and heparin-binding modified rhFGFs as well as their expression and purification is performed as previously described using his-tagged expression vectors and nickel-nitrilotriacetic acid resin columns. […] His-tagged FGFs are detected in solid organs by ELISA (FIG. 14) both for FGF and histidine (data not shown), and immunoprecipitation (IP) followed by immunoblot and in plasma by ELISA as described previously. […]

[2] = as E6 but FGF 10 μg/kg i.v. in the presence of heparin co-administration
[3] = rat, 30 min ischemia/120 min reperfusion, given i.v. at reperfusion alone (FGF 10 μg/kg; heparin 60 U/kg bolus + 12 U/kg/hr)

| Molecule | Kd (FGFR3c ectodomain) [nM] | infarct size (% infarct, percentage of area-at-risk) [1, 2] [%] | infarct size (% infarct, percentage of area-at-risk) [1, 3] [%] | effect on infarct size / cardioprotection (in words) ([1]; rat, listed as native FGF1) | effect on infarct size (in words) ([1]; rat) | reduction in infarct size compared to saline/vehicle control ([1]; rat) | reduction in infarct size compared to saline/vehicle control ([1]; rat, listed as native FGF1) | FGFR1 activation (phosphorylation, Y-654) in left ventricle (in words) (FGFR1) | FGFR (receptor) binding affinity (in words) (FGFR3c ectodomain; FGFR3c ectodomain) | effect on infarct size / cardioprotection (in words) ([1]; rat) | fold more efficacious in reducing infarct size than native FGF1 ([1]; rat, same dose at reperfusion) [fold] |
| --- | --- | --- | --- | --- | --- | --- | --- | --- | --- | --- | --- |
| FGF1: native recombinant human fibroblast growth factor 1 | 704 | 42 | 35 | markedly attenuated in the presence of heparin; also recorded: lower in the presence of heparin | significantly reduced infarct size compared to saline | 31% | 39% and 31% | elevated | – | – | – |
| FGF1^ΔHBS: FGF1 mutant carrying the K127D/K128Q/K133V triple mutation in its HS-binding region; reduced heparin-binding affinity (protein) MAEGEITTFTALTEKFNLPPGNYKKPKLLYCSNGGHFLRILPDGTVDGTRDRSDQHIQLQLSAESVGEVYIKSTETGQYLAMDTDGLLYGSQTPNEECLFLERLEENHYNTYISKKHAEKNWFVGLDQNGSCVRGPRTHYGQKAILFLPLPVSSD | 432 | 32 | 22 | – | marked reduction in infarct size compared to the native form of FGF1; also recorded: markedly lowered infarct size compared to FGF1 | 62% and 60% | – | elevated | retains normal receptor binding affinity | minor, and no statistically significant, inhibition; also recorded: did not reduce the cardioprotective effect; also recorded: not altered in the presence of heparin | ~2 |
